Assay results reported in paper doi:10.1101/2020.07.20.212654 (bioRxiv, 2020).
Blank lines part the entries; values can stand above or below the molecule they belong to.

How the values were obtained:
MET567 [1] = target: T1, MET567 (human, UniProt P08581 25-567); assay: SEC-SAXS
MET567 [2] = target: T1, MET567; assay: SPR

T1 sequence (P08581 25-567): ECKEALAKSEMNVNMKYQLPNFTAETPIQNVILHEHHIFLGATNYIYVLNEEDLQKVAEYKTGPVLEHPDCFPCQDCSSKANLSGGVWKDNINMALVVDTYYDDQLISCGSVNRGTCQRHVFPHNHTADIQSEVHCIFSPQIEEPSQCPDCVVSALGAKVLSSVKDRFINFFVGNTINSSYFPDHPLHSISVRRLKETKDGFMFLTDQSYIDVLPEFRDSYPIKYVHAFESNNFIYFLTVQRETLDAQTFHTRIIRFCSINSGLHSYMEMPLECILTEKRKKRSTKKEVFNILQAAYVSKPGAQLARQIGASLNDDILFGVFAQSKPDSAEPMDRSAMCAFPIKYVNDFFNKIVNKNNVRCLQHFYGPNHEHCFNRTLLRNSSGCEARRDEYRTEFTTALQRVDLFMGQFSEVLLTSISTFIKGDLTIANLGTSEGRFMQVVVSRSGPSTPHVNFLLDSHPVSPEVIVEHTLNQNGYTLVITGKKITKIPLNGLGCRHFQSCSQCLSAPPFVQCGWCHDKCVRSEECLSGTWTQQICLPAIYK

stoichiometry N (MET567 [1]): 1 K1K1:MET567
Kd (MET567 [2]): 205 nM
Molecule: K1K1 (from UniProt P14210 128-206) (ligand)

Kd (MET567 [2]): 200 nM
B1: NK1 (domain or fragment, human, UniProt P14210 28-209, looked up)
chain: YAEGQRKRRNTIHEFKKSAKTTLIKIDPALKIKTKKVNTADQCANRCTRNKGLPFTCKAFVFDKARKQCLWFPFNSMSSGVKKEFGHEFDLYENKDYIRNCIIGKGRSYKGTVSITKSGIKCQPWSSMIPHEHSFLPSSYRGKDLQENYCRNPRGEEGGPWCFTSNPEVRYEVCDIPQCSEV
